According to US10227617B2, “Sequestration of carbon dioxide with hydrogen to useful products” (UNIVERSITY OF GEORGIA RESEARCH FOUNDATION, INC., priority 2012, dated 2019):

Key:
[1] = at 65 C; cited from earlier work
[2] = substrate: CC(=O)CC(=O)SCCNC(=O)CCNC(=O)[C@H](O)C(C)(C)COP(=O)(O)OP(=O)(O)OC[C@H]1O[C@@H](n2cnc3c(N)ncnc32)[C@H](O)[C@@H]1OP(=O)(O)O; test: purified protein, by the assay type; details: other: Msed_0656, 70° C., pH 7.5; 70.0 °C
[3] = Acetoacetyl-CoA β-ketothiolase discontinuous DTNB assay; type: biochemical; details: 70° C
[4] = 4-hydroxybutyryl-CoA dehydratase coupled spectrophotometric assay; type: biochemical; details: 70° C
Protocol: (§1) 4-hydroxybutyryl-CoA dehydratase (Msed_1321). The enzyme was purified using a 5 ml Bio-Scale Mini Profinity IMAC cartridge (Bio-Rad). The soluble, heat-treated lysate was loaded onto the column with binding buffer (50 mM Tris, 300 mM NaCl, 3.5 mM DTT, 20 mM imidazole, pH 8.0) and the his-tagged enzyme removed with elution buffer (50 mM Tris, 300 mM NaCl, 3.5 mM DTT, 500 mM imidazole, pH 8.0). The fraction collector was positioned inside the anaerobic chamber, and fractions containing enzyme were collected, concentrated, and dialyzed into reaction buffer (100 mM potassium phosphate, pH 7.5, 1 mM DTT). The enzyme solution was either stored at room temperature inside the anaerobic chamber for immediate use or mixed with glycerol to 20% and stored at −20° C. in a sealed vacuum dessicator. Enzyme activity was measured aerobically in a coupled spectrophotometric assay at 70° C. The assay mixture contained 20 mM sodium phosphate, 5 mM MgCl2, 2 mM 4HB, 2 mM ATP, 1 mM CoA, 2 mM NAD^+, 1 mM DTT, 1 mg/ml purified Msed_0406, and 42 ng/ml Msed_0399. The reaction mixture was pre-heated for 5 min at 70° C. to allow accumulation of 4HB-CoA, and then initiated by addition of purified Msed_1321. For the oxygen-sensitivity assay, Msed_1321 was washed with 100 mM potassium phosphate, pH 7.5, to remove any DTT from the reaction buffer. […]

[5] = Oxygen-sensitivity assay of 4-hydroxybutyryl-CoA dehydratase; details: exposed to air
Protocol: as §1

[6] = Scherf et al., 1993; cited from earlier work
[7] = (S)-3-Hydroxybutyryl-CoA dehydrogenase assay, NAD+ reduction at 340 nm; type: biochemical; details: 3HB-CoA, dehydrogenase reaction; 70° C
Protocol: (§2) Crotonyl-CoA hydratase/(S)-3-Hydroxybutyryl-CoA dehydrogenase (Msed_0399). The enzyme was purified first using a Q-sepharose HiLoad 16/10 anion exchange column (GE Healthcare). The protein was loaded onto the column with 20 mM Tris, pH 8.0, and eluted with 20 mM Tris, 1 M NaCl, pH 8.0 using a linear elution gradient. Fractions containing Msed_0399 were confirmed with SDS-PAGE, collected and dialyzed into buffer for size exclusion chromatography (50 mM potassium phosphate, 150 mM NaCl, pH 7.0). The partially-purified protein was further separated on a HiLoad 26/600 Superdex 200 PG column, and the elution fractions containing Msed_0399 were collected, concentrated, and dialyzed into reaction buffer (100 mM MOPS, pH 7.5), and then either stored at 4° C. for immediate use or mixed with glycerol to 20% and stored at −20° C. Enzyme activity was measured spectrophotometrically at 70° C. by following NAD^+ reduction at 340 nm (extinction coeffienct at 340 nm=[…]) (Berg et al., 2007. Science 318:1782-1786). The assay mixture contained 20 mM MOPS (pH 7.0), 5 mM MgCl2, 2 mM NAD^+, 0.5 mM crotonyl-CoA or (S)-3-hydroxybutyryl-CoA, and purified enzyme. The reaction mixture was preheated for 2 min at 70° C. and the reaction initiated by addition of substrate.

[8] = substrate: C/C=C/C(=O)SCCNC(=O)CCNC(=O)[C@H](O)C(C)(C)COP(=O)(O)OP(=O)(O)OC[C@H]1O[C@@H](n2cnc3c(N)ncnc32)[C@H](O)[C@@H]1OP(=O)(O)O; test: crotonyl-CoA hydratase reaction of Msed_0399, NAD+ reduction at 340 nm; type: biochemical, Metallosphaera sedula; details: other: Msed_0399 (C-CoA), 70° C., pH 7.0
From the text: (§3) The crotonyl-CoA hydratase/(S)-3-hydroxybutyrl-CoA dehydrogenase activity of a polypeptide may be determined by routine methods known in the art. An example of such a polypeptide includes an amino acid sequence encoded by coding sequence Msed_0399 of Genbank accession NC_009440 and disclosed at SEQ ID NO:16.
(§4) Heterologous expression of M. sedula genes in E. coli. Msed_0406, Msed_1321, Msed_0399, and Msed_0656 were amplified from genomic DNA using primers from IDT Technologies (Coralville, Iowa). Msed_0406 was cloned into pET46-Ek/LIC with an N-terminal His6 tag, as described in Example 1. Msed_1321 was cloned with an N-terminal His6 tag into a modified pETA vector, into which the anaerobic hya promoter from E. coli had been inserted to allow for anaerobically-regulated expression (Sun et al., 2010. PLoS One 5:e10526). Msed_0399 was cloned into pET21b without a His-tag, and Msed_0656 was cloned into pCDF-Ek/LIC with an N-terminal His6 tag. All four constructs were individually cloned into NovaBlue GigaSingles E. coli competent cells and selected by growth on LB-agar supplemented with antibiotic. Sequences were confirmed by Eton Biosciences, Inc. (Durham, N.C.). Next, the plasmids were transformed into E. coli Rosetta 2 (DE3) cells for protein expression. Rosetta strains containing pET46-0406, pET21b-0399, and pCDF-0656 were grown and expressed aerobically at 37° C. for 16 h in Studier's auto-inducing medium ZYM-5052 (Studier, 2005. Protein Expression and Purification 41:207-234). Rosetta cells containing pETA-1321 plasmid were grown in a 2 L Applikon bioreactor (37° C., 800 rpm, pH 6.7, 0.5 slpm air) in Studier's non-inducing medium ZYM-505 with 0.5 mM FeCl3. […]
(§5) Crotonyl-CoA hydratase/(S)-3-Hydroxybutyryl-CoA dehydrogenase (Msed_0399). […] Enzyme activity was measured spectrophotometrically at 70° C. by following NAD^+ reduction at 340 nm (extinction coeffienct at 340 nm=[…]) (Berg et al., 2007. Science 318:1782-1786). […]

[9] = Crotonyl-CoA hydratase assay, NAD+ reduction at 340 nm; type: biochemical; details: C-CoA, hydratase reaction; 70° C
Protocol: as §2

[10] = substrate: C[C@H](O)CC(=O)SCCNC(=O)CCNC(=O)[C@H](O)C(C)(C)COP(=O)(O)OP(=O)(O)OC[C@H]1O[C@@H](n2cnc3c(N)ncnc32)[C@H](O)[C@@H]1OP(=O)(O)O; test: (S)-3-hydroxybutyryl-CoA dehydrogenase reaction of Msed_0399, NAD+ reduction at 340 nm; type: biochemical, Metallosphaera sedula; details: other: Msed_0399 (3HB-CoA), 70° C., pH 7.0
From the text: as §3, §4, §5

For O=C(O)O [carbonic acid], the “apparent pKa of the ionization to bicarbonate” value [1] is given as “about 6.3”.

B1: Metallosphaera sedula acetoacetyl-CoA β-ketothiolase Msed_0656, SEQ ID NO:17, recombinant (Metallosphaera sedula DSM 5348) (protein)
chain: MPDVYIVSAVRTPIGRFGGSLKSVKPQMLGAIAIKEALRRANTDPSRVELTIMGNVLRSGHGQDLARQAALLAGIPWEVDGYCVDMVCSSGMMGVTNAAQMIKSGDADVVVAGGMESMSQSMLAVNSEVRWGVKFLSGKSLNFIDTMLVDGLTDPFNLKLMGQEADMVARERDISRRELDEVAFESHRRAHQAWEKGLFKSEVIPVNLDEGKLERDEGIRPDTTMEKLSSLKPAFTENGYHTAGNSSQISDGAVAMVLMSEKAVKEFGVDPVAKILGYSWVGIESWRFTEAPLYSVRKLLTRLNMNITQFDYFENNEAFAVNNVLFHRYLGVPYDQLNVFGGAIALGHPIGASGARIMVTLLNVLSKMNATRGIASICHGVGGSTAIALELLRPL
In the case of B1, the Km [2] is reported as 180 µM, the Vmax [2] is reported as 1400 µmol/min/mg and the kcat [2] is reported as 1000 s⁻¹. It also gave a Vmax [3] of 1400 µmol/min/mg.

B2: Msed_1321: M. sedula 4-hydroxybutyryl-CoA dehydratase, SEQ ID NO:15 (protein, listed as Metallosphaera sedula)
chain: MVVRTGEQYLQSISNRSKVEIYVMGREVKDVTKHPFLKPSVMSFKATFDAAWEEDTKELGRAWSPYLEEEINRFNHIHRSPDDLAAKVKLLRKLSHKTGACFQRCVGWDSLNTLHIVTTMMAKKGKTEVRDRFVEYLKYVQKNDLALAGAMTDAKGIRNLKPSQQPNKNAYLRITEVTKDGIYVSGAKANITGVAATEEMVVLPTRAMGPEDKDYAVAFAIPTDTEGVKIVVGRQLNDARRMEEGEIDGLPYFYNHEGLVIFDNVFVPMNRVFLAGEWEYTGTLVEIFSAYHRQGYGGCKAGLGDVIIGASADLAKQIGVDRASHVQDKLTEMIFLTETMYSAGIAASLNAVKMCDNCWWVNPMHANVTKHLVARFPSQIAQLSIDLAGGIVGTAPSEWDLKNPKLKEYISRYLQGAEDFTAEDRLRMVRLVENVSMGVAFQIESVHGAGSPAAQRIMFSRLYDLNFAQEVAKKLAGRKSEVKFTSKAEPWRESQSEAEAKEAGLKS
For B2, the Vmax [4] was 2.2 µmol/min/mg and the “duration of initial activation upon exposure to air” value [5] was “about 15 hours”.

B3: clostridal homolog: 4-hydroxybutyryl-CoA dehydratase from Clostridium aminobutyricum (protein, UniProt P55792 1-490, looked up)
4-hydroxybutyryl-CoA …: MLMTAEQYIESLRKLNTRVYMFGEKIENWVDHPMIRPSINCVAMTYELAQDPQYADLMTTKSNLIGKTINRFANLHQSTDDLRKKVKMQRLLGQKTASCFQRCVGMDAFNAVFSTTYEIDQKYGTNYHKNFTEYLKYIQENDLIVDGAMTDPKGDRGLAPSAQKDPDLFLRIVEKREDGIVVRGAKAHQTGSINSHEHIIMPTIAMTEADKDYAVSFACPSDADGLFMIYGRQSCDTRKMEEGADIDLGNKQFGGQEALVVFDNVFIPNDRIFLCQEYDFAGMMVERFAGYHRQSYGGCKVGVGDVVIGAAALAADYNGAQKASHVKDKLIEMTHLNETLYCCGIACSAEGYPTAAGNYQIDLLLANVCKQNITRFPYEIVRLAEDIAGGLMVTMPSEADFKSETVVGRDGETIGDFCNKFFAAAPTCTTEERMRVLRFLENICLGASAVGYRTESMHGAGSPQAQRIMIARQGNINAKKELAKAIAGIK
For B3, the “time to irreversible inactivation when exposed to air” value [6] is listed as ~25 min.

B4: Metallosphaera sedula crotonyl-CoA hydratase/(S)-3-hydroxybutyryl-CoA dehydrogenase Msed_0399, SEQ ID NO:16, recombinant (Metallosphaera sedula DSM 5348) (protein)
chain: MKVTVIGSGVMGHGIAELAAIAGNEVWMNDISTEILQQAMERIKWSLSKLRESGSLKEGVEQVLARIHPETDQAQALKGSDFVIEAVKEDLELKRTIFRNAEAHASPSAVLATNTSSLPISEIASVLKSPQRVVGMHFFNPPVLMPLVEIVRGKDTSDEVVKTTAEMAKSMNKETIVVKDVPGFFVNRVLLRIMEAGCYLVEKGIASIQEVDSSAIEELGFPMGVFLLADYTGLDIGYSVWKAVTARGFKAFPCSSTEKLVSQGKLGVKSGSGYYQYPSPGKFVRPTLPSTSKKLGRYLISPAVNEVSYLLREGIVGKDDAEKGCVLGLGLPKGILSYADEIGIDVVVNTLEEMRQTSGMDHYSPDPLLLSMVKEGKLGRKSGQGFHTYAHEEAKYSTIVVRVEPPLAWIVLNRPTRYNAINGDMIREINQALDSLEEREDVRVIAITGQGRVFSAGADVTEFGSLTPVKAMIASRKFHEVFMKIQFLTKPVIAVINGLALGGGMELALSADFRVASKTAEMGQPEINLGLIPGGGGTQRLSRLSGRKGLELVLTGRRVKAEEAYRLGIVEFLAEPEELESEVRKLANAIAEKSPLAVASAKLAYKLGEETHIWTGTSLEASLFGLLFSTKDFEEGVRAFLEKRKPNFRGE
With B4 the Vmax [7] was 16 µmol/min/mg, the Km [8] was 70 µM and the Vmax [8] was 20 µmol/min/mg. It also gave a kcat [8] of 19 s⁻¹, a Vmax [9] of 20 µmol/min/mg and a Km [10] of 60 µM. For the same molecule, the Vmax [10] was 16 µmol/min/mg and the kcat [10] was 15 s⁻¹.
